The values that follow come from the supplement of paper PMC5998384.

Data set [1] concerns HeLa Kyoto. In words: solubility in G1/S (NP-40 vs SDS abundance) (log2 ratio); higher = more soluble. As to conditions: cell cycle stage: G1/S.
Data set [2] relates to HeLa Kyoto. In words: solubility change mitosis vs G1/S (difference of NP-40 vs SDS log2 ratios) (log2 ratio difference); higher = more soluble in mitosis.
Data set [3] concerns HeLa Kyoto. In words: melting temperature (median over replicates), in situ; higher = more thermally stable.
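For melting temperature (median over replicates), in situ in this document: HeLa Kyoto cells synchronized by double thymidine or nocodazole block, proteins quantified by TMT10plex mass spectrometry, three independent biological replicates.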
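For solubility change mitosis vs G1/S (difference of NP-40 vs SDS log2 ratios) in this document: synchronized HeLa Kyoto cells (double thymidine block for G1/S, nocodazole release for mitosis), protein amounts in NP-40 versus SDS lysates quantified by mass spectrometry, three biological replicates.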
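For solubility in G1/S (NP-40 vs SDS abundance) in this document: HeLa Kyoto cells arrested at G1/S by double thymidine block, proteins quantified by TMT10plex mass spectrometry in mild NP-40 versus SDS extracts, three biological replicates.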

As for “MYLSICCCFLLWAPALTLKNLNYSVPEEQGAGTVIGNIGRDARLQPGLPPAERGGGGRSKSGSYRVLENSAPHLLDVDADSGLLYTKQRIDRESLCRHNAKCQLSLEVFANDKEICMIKVEIQDINDNAPSFSSDQIEMDISENAAPGTRFPLTSAHDPDAGENGLRTYLLTRDDHGLFGLDVKSRGDGTKFPELVIQKALDREQQNHHTLVLTALDGGEPPRSATVQINVKVIDSNDNSPVFEAPSYLVELPENAPLGTVVIDLNATDADEGPNGEVLYSFSSYVPDRVRELFSIDPKTGLIRVKGNLDYEENGMLEIDVQARDLGPNPIPAHCKVTVKLIDRNDNAPSIGFVSVRQGALSEAAPPGTVIALVRVTDRDSGKNGQLQCRVLGGGGTGGGGGLGGPGGSVPFKLEENYDNFYTVVTDRPLDRETQDEYNVTIVARDGGSPPLNSTKSFAIKILDENDNPPRFTKGLYVLQVHENNIPGEYLGSVLAQDPDLGQNGTVSYSILPSHIGDVSIYTYVSVNPTNGAIYALRSFNFEQTKAFEFKVLAKDSGAPAHLESNATVRVTVLDVNDNAPVIVLPTLQNDTAELQVPRNAGLGYLVSTVRALDSDFGESGRLTYEIVDGNDDHLFEIDPSSGEIRTLHPFWEDVTPVVELVVKVTDHGKPTLSAVAKLIIRSVSGSLPEGVPRVNGEQHHWDMSLPLIVTLSTISIILLAAMITIAVKCKRENKEIRTYNCRIAEYSHPQLGGGKGKKKKINKNDIMLVQSEVEERNAMNVMNVVSSPSLATSPMYFDYQTRLPLSSPRSEVMYLKPASNNLTVPQGHAGCHTSFTGQGTNASETPATRMSIIQTDNFPAEPNYMGSRQQFVQSSSTFKDPERASLRDSGHGDSDQADSDQDTNKGSCCDMSVREALKMKTTSTKSQPLEQEPEECVNCTDECRVLGHSDRCWMPQFPAANQAENADYRTNLFVPTVEANVETETYETVNPTGKKTFCTFGKDKREHTILIANVKPYLKAKRALSPLLQEVPSASSSPTKACIEPCTSTKGSLDGCEAKPGALAEASSQYLPTDSQYLSPSKQPRDPPFMASDQMARVFADVHSRASRDSSEMGAVLEQLDHPNRDLGRESVDAEEVVREIDKLLQDCRGNDPVAVRK [PCDH17]”, the “solubility in G1/S (log2)” value in the data set with HeLa Kyoto [1] worked out at 0.25. Moreover, the “solubility change mitosis (log2)” value in the data set on HeLa Kyoto [2] is -0.0215. Further, the melting temperature is 53.8 °C in the data set with HeLa Kyoto [3] (cell cycle stage: G1/S) and 53.4 °C in the data set with HeLa Kyoto [3] (cell cycle stage: mitosis).
“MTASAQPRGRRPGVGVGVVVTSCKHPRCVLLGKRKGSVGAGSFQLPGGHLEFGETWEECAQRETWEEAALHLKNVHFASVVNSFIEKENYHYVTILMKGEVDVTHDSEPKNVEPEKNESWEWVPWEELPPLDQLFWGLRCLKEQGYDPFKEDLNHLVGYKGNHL [NUDT15]”: the “solubility in G1/S (log2)” value with HeLa Kyoto [1] came out at 0.425. The “solubility change mitosis (log2)” value with HeLa Kyoto [2] was -0.3. In addition, the melting temperature in the data set with HeLa Kyoto [3] (cell cycle stage: G1/S) is 53.4 °C; in the data set on HeLa Kyoto [3] (cell cycle stage: mitosis), 52.3 °C.
For “MGKKHKKHKSDKHLYEEYVEKPLKLVLKVGGNEVTELSTGSSGHDSSLFEDKNDHDKHKDRKRKKRKKGEKQIPGEEKGRKRRRVKEDKKKRDRDRVENEAEKDLQCHAPVRLDLPPEKPLTSSLAKQEEVEQTPLQEALNQLMRQLQRKDPSAFFSFPVTDFIAPGYSMIIKHPMDFSTMKEKIKNNDYQSIEELKDNFKLMCTNAMIYNKPETIYYKAAKKLLHSGMKILSQERIQSLKQSIDFMADLQKTRKQKDGTDTSQSGEDGGCWQREREDSGDAEAHAFKSPSKENKKKDKDMLEDKFKSNNLEREQEQLDRIVKESGGKLTRRLVNSQCEFERRKPDGTTTLGLLHPVDPIVGEPGYCPVRLGMTTGRLQSGVNTLQGFKEDKRNKVTPVLYLNYGPYSSYAPHYDSTFANISKDDSDLIYSTYGEDSDLPSDFSIHEFLATCQDYPYVMADSLLDVLTKGGHSRTLQEMEMSLPEDEGHTRTLDTAKEMEITEVEPPGRLDSSTQDRLIALKAVTNFGVPVEVFDSEEAEIFQKKLDETTRLLRELQEAQNERLSTRPPPNMICLLGPSYREMHLAEQVTNNLKELAQQVTPGDIVSTYGVRKAMGISIPSPVMENNFVDLTEDTEEPKKTDVAECGPGGS [BRD7]”, the “solubility in G1/S (log2)” value in the data set with HeLa Kyoto [1] was -0.49. Moreover, the “solubility change mitosis (log2)” value in the data set with HeLa Kyoto [2] is 0.315. In addition, the values for the melting temperature in the data set with HeLa Kyoto [3] (cell cycle stage: G1/S) and in the data set on HeLa Kyoto [3] (cell cycle stage: mitosis) were 46.7 °C and 49.1 °C, respectively.
Turning to “MPVVWPTLLDLSRDECKRILRKLELEAYAGVISALRAQGDLTKEKKDLLGELSKVLSISTERHRAEVRRAVNDERLTTIAHNMSGPNSSSEWSIEGRRLVPLMPRLVPQTAFTVTANAVANAAIQHNASLPVPAETGSKEVVCYSYTSTTSTPTSTPVPSGSIATVKSPRPASPASNVVVLPSGSTVYVKSVSCSDEDEKPRKRRRTNSSSSSPVVLKEVPKAVVPVSKTITVPVSGSPKMSNIMQSIANSLPPHMSPVKITFTKPSTQTTNTTTQKVIIVTTSPSSTFVPNILSKSHNYAAVTKLVPTSVIASTTQKPPVVITASQSSLVSNSSSGSSSSTPSPIPNTVAVTAVVSSTPSVVMSTVAQGVSTSAIKMASTRLPSPKSLVSAPTQILAQFPKQHQQSPKQQLYQVQQQTQQQVAQPSPVSHQQQPQQSPLPPGIKPTIQIKQESGVKIITQQVQPSKILPKPVTATLPTSSNSPIMVVSSNGAIMTTKLVTTPTGTQATYTRPTVSPSIGRMAATPGAATYVKTTSGSIITVVPKSLATLGGKIISSNIVSGTTTKITTIPMTSKPNVIVVQKTTGKGTTIQGLPGKNVVTTLLNAGGEKTIQTVPTGAKPAILTATRPITKMIVTQPKGIGSTVQPAAKIIPTKIVYGQQGKTQVLIKPKPVTFQATVVSEQTRQLVTETLQQASRVAEAGNSSIQEGKEEPQNYTDSSSSSTESSQSSQDSQPVVHVIASRRQDWSEHEIAMETSPTIIYQDVSSESQSATSTIKALLELQQTTVKEKLESKPRQPTIDLSQMAVPIQMTQEKRHSPESPSIAVVESELVAEYITTERTDEGTEVAFPLLVSHRSQPQQPSQPQRTLLQHVAQSQTATQTSVVVKSIPASSPGAITHIMQQALSSHTAFTKHSEELGTEEGEVEEMDTLDPQTGLFYRSALTQSQSAKQQKLSQPPLEQTQLQVKTLQCFQTKQKQTIHLQADQLQHKLPQMPQLSIRHQKLTPLQQEQAQPKPDVQHTQHPMVAKDRQLPTLMAQPPQTVVQVLAVKTTQQLPKLQQAPNQPKIYVQPQTPQSQMSLPASSEKQTASQVEQPIITQGSSVTKITFEGRQPPTVTKITGGSSVPKLTSPVTSISPIQASEKTAVSDILKMSLMEAQIDTNVEHMIVDPPKKALATSMLTGEAGSLPSTHMVVAGMANSTPQQQKCRESCSSPSTVGSSLTTRKIDPPAVPATGQFMRIQNVGQKKAEESPAEIIIQAIPQYAIPCHSSSNVVVEPSGLLELNNFTSQQLDDEETAMEQDIDSSTEDGTEPSPSQSSAERS [EMSY]”, the “solubility in G1/S (log2)” value with HeLa Kyoto [1] is -0.0948. Besides, the “solubility change mitosis (log2)” value with HeLa Kyoto [2] worked out at 0.0269. Besides, the figures for the melting temperature in the data set with HeLa Kyoto [3] (cell cycle stage: G1/S) and in the data set with HeLa Kyoto [3] (cell cycle stage: mitosis) were 44.6 °C and 50.6 °C, respectively.
